Experimental findings from patent US20230220048A1 are described below.

The target of this assay is recombinant human FcRn (human) (UniProt P55899). The assay can be described thus: SPR, pH 5.8 (comparison value, data not shown). For orientation: In SPR one partner is held on a chip, and binding of the other changes the refractive index at the surface.
recombinant human FcRn (human), sequence (P55899 24-297): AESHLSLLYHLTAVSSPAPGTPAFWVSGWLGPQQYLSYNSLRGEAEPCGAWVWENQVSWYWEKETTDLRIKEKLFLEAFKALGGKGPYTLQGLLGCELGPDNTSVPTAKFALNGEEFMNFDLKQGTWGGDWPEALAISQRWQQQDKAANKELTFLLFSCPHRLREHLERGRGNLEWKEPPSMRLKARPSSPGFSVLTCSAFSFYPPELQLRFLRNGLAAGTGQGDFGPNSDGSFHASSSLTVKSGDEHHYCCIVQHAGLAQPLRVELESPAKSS

In the case of “wild type HSA (from UniProt P02768 25-607)”, the dissociation constant Kd (in general, the equilibrium constant for the complex coming apart) was 1000 to 2000 nM.
